Here are results for 81 substances from the Human Domainome abundance scans (Beltran et al. 2025).

± gives the uncertainty stated by the source.

A short description of the series: abundance fitness (aPCA) (normalised: wild type 0, dead -1); higher = more abundant; growth selection in yeast, the domain comes from the species named. The conditions noted are these: Homo sapiens.
In the case of “BAG family molecular chaperone regulator 3 G15H, O95817”, the abundance fitness came out at 1.18 ± 0.16.

As for “BAG family molecular chaperone regulator 3 G15I, O95817”, the abundance fitness was determined as 0.795 ± 0.18.

As to “BAG family molecular chaperone regulator 3 G15K, O95817”, the abundance fitness is 1.15 ± 0.12.

Take “BAG family molecular chaperone regulator 3 G15L, O95817”: the abundance fitness stood at 0.766 ± 0.074.

Consider “BAG family molecular chaperone regulator 3 G15M, O95817”, for which the abundance fitness stood at 0.142 ± 0.17.

For “BAG family molecular chaperone regulator 3 G15N, O95817”, the abundance fitness is 1.04 ± 0.089.

With “BAG family molecular chaperone regulator 3 G15P, O95817”, the abundance fitness was 0.603 ± 0.15.

In the case of “BAG family molecular chaperone regulator 3 G15Q, O95817”, the abundance fitness came out at 0.828 ± 0.094.

Consider “BAG family molecular chaperone regulator 3 G15R, O95817”, for which the abundance fitness was found to be 0.737 ± 0.059.

Consider “BAG family molecular chaperone regulator 3 G15S, O95817”, for which the abundance fitness was 0.814 ± 0.067.

Take “BAG family molecular chaperone regulator 3 G15T, O95817”: the abundance fitness was 0.856 ± 0.082.

With “BAG family molecular chaperone regulator 3 G15V, O95817”, the abundance fitness worked out at 0.89 ± 0.078.

With “BAG family molecular chaperone regulator 3 G15W, O95817”, the abundance fitness was -0.481 ± 0.19.

The substance “BAG family molecular chaperone regulator 3 G15Y, O95817” showed an abundance fitness of 0.874 ± 0.075.

The substance “BAG family molecular chaperone regulator 3 G17A, O95817” gave an abundance fitness of 0.55 ± 0.09.

Substance “BAG family molecular chaperone regulator 3 G17C, O95817” returned an abundance fitness of 0.731 ± 0.11.

In turn, “BAG family molecular chaperone regulator 3 G17D, O95817” returned an abundance fitness of 0.825 ± 0.07.

Substance “BAG family molecular chaperone regulator 3 G17E, O95817” displayed an abundance fitness of 0.915 ± 0.077.

As to “BAG family molecular chaperone regulator 3 G17F, O95817”, the abundance fitness was -0.177 ± 0.23.

Turning to “BAG family molecular chaperone regulator 3 G17H, O95817”, the abundance fitness is 1.03 ± 0.1.

In turn, “BAG family molecular chaperone regulator 3 G17I, O95817” registered an abundance fitness of 0.73 ± 0.092.

For “BAG family molecular chaperone regulator 3 G17K, O95817”, the abundance fitness was 0.564 ± 0.093.

Turning to “BAG family molecular chaperone regulator 3 G17L, O95817”, the abundance fitness came out at 0.282 ± 0.087.

With “BAG family molecular chaperone regulator 3 G17M, O95817”, the abundance fitness was determined as 0.25 ± 0.21.

As to “BAG family molecular chaperone regulator 3 G17N, O95817”, the abundance fitness worked out at 0.913 ± 0.13.

Take “BAG family molecular chaperone regulator 3 G17P, O95817”: the abundance fitness came to 1.15 ± 0.12.

The substance “BAG family molecular chaperone regulator 3 G17Q, O95817” gave an abundance fitness of 0.968 ± 0.098.

In the case of “BAG family molecular chaperone regulator 3 G17R, O95817”, the abundance fitness stood at 0.791 ± 0.06.

On to “BAG family molecular chaperone regulator 3 G17S, O95817”, for which the abundance fitness is 0.82 ± 0.073.

Substance “BAG family molecular chaperone regulator 3 G17T, O95817” displayed an abundance fitness of 0.943 ± 0.083.

Turning to “BAG family molecular chaperone regulator 3 G17W, O95817”, the abundance fitness is 0.329 ± 0.083.

In turn, “BAG family molecular chaperone regulator 3 G17Y, O95817” yielded an abundance fitness of 0.213 ± 0.22.

For “BAG family molecular chaperone regulator 3 G25A, O95817”, the abundance fitness was -0.712 ± 0.17.

Take “BAG family molecular chaperone regulator 3 G25C, O95817”: the abundance fitness was -0.74 ± 0.17.

“BAG family molecular chaperone regulator 3 G25D, O95817”: the abundance fitness was -0.548 ± 0.23.

For the substance “BAG family molecular chaperone regulator 3 G25H, O95817”, the abundance fitness is -0.125 ± 0.065.

As for “BAG family molecular chaperone regulator 3 G25K, O95817”, the abundance fitness was -0.492 ± 0.23.

On to “BAG family molecular chaperone regulator 3 G25L, O95817”, for which the abundance fitness was -0.784 ± 0.19.

As to “BAG family molecular chaperone regulator 3 G25M, O95817”, the abundance fitness is -0.652 ± 0.075.

Substance “BAG family molecular chaperone regulator 3 G25N, O95817” had an abundance fitness of 0.081 ± 0.21.

In the case of “BAG family molecular chaperone regulator 3 G25Q, O95817”, the abundance fitness is -1.03 ± 0.27.

As to “BAG family molecular chaperone regulator 3 G25R, O95817”, the abundance fitness was -0.432 ± 0.14.

Take “BAG family molecular chaperone regulator 3 G25S, O95817”: the abundance fitness is -0.726 ± 0.19.

Take “BAG family molecular chaperone regulator 3 G25T, O95817”: the abundance fitness was -0.667 ± 0.22.

For the substance “BAG family molecular chaperone regulator 3 G25V, O95817”, the abundance fitness was -1.23 ± 0.33.

Consider “BAG family molecular chaperone regulator 3 G25W, O95817”, for which the abundance fitness was -0.875 ± 0.34.

Turning to “BAG family molecular chaperone regulator 3 G35A, O95817”, the abundance fitness was found to be 0.335 ± 0.063.

“BAG family molecular chaperone regulator 3 G35C, O95817” showed an abundance fitness of 0.146 ± 0.17.

“BAG family molecular chaperone regulator 3 G35D, O95817” gave an abundance fitness of 0.202 ± 0.13.

As for “BAG family molecular chaperone regulator 3 G35F, O95817”, the abundance fitness is -0.552 ± 0.11.

The substance “BAG family molecular chaperone regulator 3 G35H, O95817” had an abundance fitness of 0.552 ± 0.28.

As to “BAG family molecular chaperone regulator 3 G35K, O95817”, the abundance fitness was determined as 0.766 ± 0.078.

With “BAG family molecular chaperone regulator 3 G35L, O95817”, the abundance fitness was -0.184 ± 0.14.

For the substance “BAG family molecular chaperone regulator 3 G35M, O95817”, the abundance fitness was -0.158 ± 0.16.

In turn, “BAG family molecular chaperone regulator 3 G35N, O95817” showed an abundance fitness of 1.26 ± 0.22.

In the case of “BAG family molecular chaperone regulator 3 G35P, O95817”, the abundance fitness is -0.237 ± 0.21.

In the case of “BAG family molecular chaperone regulator 3 G35Q, O95817”, the abundance fitness was found to be 0.41 ± 0.11.

“BAG family molecular chaperone regulator 3 G35R, O95817”: the abundance fitness was 0.366 ± 0.078.

For “BAG family molecular chaperone regulator 3 G35S, O95817”, the abundance fitness was 0.442 ± 0.064.

Turning to “BAG family molecular chaperone regulator 3 G35T, O95817”, the abundance fitness is -0.006 ± 0.11.

Turning to “BAG family molecular chaperone regulator 3 G35V, O95817”, the abundance fitness is -0.589 ± 0.16.

For “BAG family molecular chaperone regulator 3 G35W, O95817”, the abundance fitness was -0.726 ± 0.19.

For “BAG family molecular chaperone regulator 3 G35Y, O95817”, the abundance fitness was -0.304 ± 0.24.

Consider “BAG family molecular chaperone regulator 3 G58A, O95817”, for which the abundance fitness was -0.45 ± 0.15.

Regarding “BAG family molecular chaperone regulator 3 G58C, O95817”, the abundance fitness is -0.17 ± 0.25.

“BAG family molecular chaperone regulator 3 G58D, O95817” gave an abundance fitness of 0.238 ± 0.18.

In the case of “BAG family molecular chaperone regulator 3 G58E, O95817”, the abundance fitness was -0.045 ± 0.18.

On to “BAG family molecular chaperone regulator 3 G58F, O95817”, for which the abundance fitness was -0.382 ± 0.37.

Consider “BAG family molecular chaperone regulator 3 G58H, O95817”, for which the abundance fitness was -0.263 ± 0.1.

“BAG family molecular chaperone regulator 3 G58I, O95817” showed an abundance fitness of 0.138 ± 0.28.

Regarding “BAG family molecular chaperone regulator 3 G58L, O95817”, the abundance fitness was -0.211 ± 0.2.

Substance “BAG family molecular chaperone regulator 3 G58M, O95817” showed an abundance fitness of 0.512 ± 0.17.

The substance “BAG family molecular chaperone regulator 3 G58N, O95817” registered an abundance fitness of 0.51 ± 0.35.

Take “BAG family molecular chaperone regulator 3 G58P, O95817”: the abundance fitness was -0.032 ± 0.29.

“BAG family molecular chaperone regulator 3 G58Q, O95817” registered an abundance fitness of 0.85 ± 0.19.

With “BAG family molecular chaperone regulator 3 G58R, O95817”, the abundance fitness is -0.214 ± 0.08.

As to “BAG family molecular chaperone regulator 3 G58S, O95817”, the abundance fitness was -0.193 ± 0.11.

In the case of “BAG family molecular chaperone regulator 3 G58V, O95817”, the abundance fitness was -0.129 ± 0.064.

On to “BAG family molecular chaperone regulator 3 G58W, O95817”, for which the abundance fitness is -0.682 ± 0.29.

In the case of “BAG family molecular chaperone regulator 3 H42A, O95817”, the abundance fitness was -0.857 ± 0.15.

For “BAG family molecular chaperone regulator 3 H42C, O95817”, the abundance fitness is -0.457 ± 0.33.
